Test results published in patent EP4389150A1, “CONJUGATE COMPOUNDS AND THEIR USE IN CANCER TREATMENT AND DIAGNOSIS” (Technische Universität München, priority 2022, dated 2024).
Where two headings read alike, the source gives them in different places. Where a SMILES comes first, the peptide text is derived from it. [ ]: non-standard residue; d: D form. The star is where a group is joined. X1 = CN(Cc1ccc(-c2[nH]c3cc(F)cc4c3c2CCNC4=O)cc1)C(=O)CCS*; EuK = O=C(O)CC[C@H](NC(=O)N[C@@H](CCCCN*)C(=O)O)C(=O)O; Ahx = NCCCCCC(=O)O; Mpa = O=C(O)CCS

What was measured:
[1] = target: prostate-specific membrane antigen (PSMA) (UniProt Q04609); experiment: cell uptake of 68Ga-labelled ligand (0.4 nM) on LNCaP cells, gamma counting
[2] = target: prostate-specific membrane antigen (PSMA) (UniProt Q04609); experiment: competition with [68Ga]-PSMA-617 (0.4 nM) on LNCaP cells, 60 min on ice
[3] = Lipophilicity, n-octanol/PBS distribution coefficient; assay type: physicochemical
Description: Lipophilicity of the conjugates was determine after radiolabeling with ^68Ga. The PSMA ligand (0.80 MBq) was dissolved in PBS (500 µL/pH 7.4) in a reaction vial (1.5 mL; n = 10). Afterwards, n-octanol was added (500 µL) and the mixture was rigorously vortexed for 3 min. Subsequent centrifugation (Biofuge 15, Heraus Sepatech, Osterode, Germany) at 13,000 rpm for 5 min led to a phase separation. After measuring 100 µL of each phase in a γ-counter, the distribution coefficient (logD(O/PBS)) was calculated with Microsoft Excel.

PSMA = target: T1, PSMA (Homo sapiens, UniProt Q04609); experiment: IC50 determination by competition with [68Ga]-PSMA-617 on LNCaP cells; assay type: binding; details: [68Ga]-PSMA-617 0.4 nM, 60 min on ice, natGa-labelled ligands
T1 construct: endogenous in cells; host or cells: LNCaP cells
Description: In the meantime, dilution series of the compounds were prepared in 1% BSA (w/v)/HBSS in a separate 96 U-bottom deep well plate ranging from 12 µM to 153.6 pM in 1:5 dilution steps. Next, solutions (25 µL/well) of either 1% BSA (w/v)/HBSS (control) or of the respective dilution series were transferred to the LNCaP cells containing plate. Hereby, each concentration was pipetted in triplicates and each experiment was repeated three times. Subsequently, [^68Ga]-PSMA-617 (25 µL/well; 0.4 nM final concentration; AM = 26-30 MBq/nmol) in 1% BSA (w/v)/HBSS was added to all wells and the plate was incubated for 60 min on ice. Afterwards, the experiment was terminated by centrifugation at 600 g for 3 min and removal of the supernatant. The cells were then washed with ice-cold HBSS (150 µL/well), centrifuged (600 g, 3 min), and the supernatant as well as the washing fraction were combined, representing the amount of free, unbound radioligand. Bound radioligand was obtained by lysis of the cells with 1.0 N NaOH (150 µL/well; 10 min on ice). Afterwards, the plate was washed a second time with 1.0 N NaOH (150 µL/well). Hereby, the washing step was combined with the NaOH fraction. The quantification of bound and free radioligand was finally accomplished via measuring the samples in a γ-counter.

LNCaP cells = experiment: Binding and internalization (cell uptake) of 68Ga-labelled PSMA ligands in LNCaP cells; assay type: cell-based
Description: To determine ligand internalization, LNCaP cells were seeded in a 96 V-bottom well plate at a density of 100,000 cells/well in 5% BSA (w/v)/RPMI medium (100 µL/well) and incubated for 30 min at 37 °C. Afterwards, solutions (25 µL/well) of either 5% BSA (w/v)/RPMI medium or of 2-PMPA (final concentration: 10 µM) in 5% BSA (w/v)/RPMI medium for blockade were added. Then, a solution of the ^68Ga-labeled PSMA-ligand (25 µL/well; 0.4 nM final concentration; AM = 26-30 MBq/nmol) was added to all wells, and the cells were incubated for 5, 15, 30, and 60 min, respectively, at 37 °C. Hereby, each time point was performed in triplicates and each experiment was repeated three times. The internalization process was terminated by placing the plate for 5 min on ice. The free radioligand was obtained by centrifugation of the plate at 600 g for 3 min and removal of the supernatant. Each well was then washed with ice-cold PBS and the fractions of the first two steps were combined. For removal of cell-bound PSMA-ligand, the cells were treated in a next step with ice-cold 2-PMPA-solution (10 µM in PBS; 150 µL/well; 15 min on ice), centrifuged (600 g, 3 min), and washed with ice-cold PBS (150 µL/well). The fractions were again combined. For the analysis of internalized radioligand, the fractions of a 1.0 N NaOH (150 µL/well; 10 min on ice) treatment as well as a concomitant washing step with 1.0 N NaOH (150 µL/well) were pooled. Free, surface bound, and internalized activity, respectively, was measured in a γ-counter.

[4] = system: PC3-PIP/PC3-flu bilateral tumor model; assay type: in vivo, Athymic nude mice; details: for tumor uptake (PET/CT, biodistribution): PSMA+ PC3-PIP versus PSMA- PC3-Flu tumors; for biodistribution profile: 1 h post-injection
Serum stability = assay type: in vitro ADME; details: 37 °C
Description: For serum stability analysis, 13.5 µL human serum were mixed with 1.5 µL of an aqueous solution of the test compound (200 µM final concentration) and incubated at 37 °C for 0.5, 1, 2, and 24 h, respectively. Afterwards, 25.0 µL MeCN were added, the suspension was centrifuged (14,000 rpm, 30 min, 4 °C), the supernatant was recovered, and finally analyzed by HPLC-ESI-MS using a linear elution gradient from 10 to 95% (v/v) MeCN/0.1% (v/v) TFA in water/0.1% (v/v) TFA for 15 min.

[5] = 68Ga-labelled, 2 nmol via tail vein, 60 min p.i.

T1 sequence (Q04609 whole entry): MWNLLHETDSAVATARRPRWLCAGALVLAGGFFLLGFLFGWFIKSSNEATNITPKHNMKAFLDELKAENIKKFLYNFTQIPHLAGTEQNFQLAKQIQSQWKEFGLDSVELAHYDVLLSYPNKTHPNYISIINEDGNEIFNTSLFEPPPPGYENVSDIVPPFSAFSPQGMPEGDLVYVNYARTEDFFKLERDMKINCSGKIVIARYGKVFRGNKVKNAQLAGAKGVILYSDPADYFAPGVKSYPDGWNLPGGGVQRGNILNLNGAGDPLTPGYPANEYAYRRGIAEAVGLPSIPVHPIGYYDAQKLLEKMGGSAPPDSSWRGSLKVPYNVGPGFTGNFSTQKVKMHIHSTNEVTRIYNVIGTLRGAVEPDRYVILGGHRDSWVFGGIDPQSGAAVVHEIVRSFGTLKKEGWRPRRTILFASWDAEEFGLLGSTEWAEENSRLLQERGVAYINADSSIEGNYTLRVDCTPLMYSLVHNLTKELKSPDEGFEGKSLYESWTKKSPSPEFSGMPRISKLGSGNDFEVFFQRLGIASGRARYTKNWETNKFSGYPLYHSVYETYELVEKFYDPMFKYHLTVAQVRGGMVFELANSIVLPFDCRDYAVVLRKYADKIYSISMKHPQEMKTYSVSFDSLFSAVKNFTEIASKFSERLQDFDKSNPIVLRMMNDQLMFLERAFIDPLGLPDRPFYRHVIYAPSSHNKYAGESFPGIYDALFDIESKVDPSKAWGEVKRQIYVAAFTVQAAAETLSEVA
Sequence of prostate-specific membrane antigen (PSMA) (Q04609 whole entry): as above

Molecule | % bound of total applied dose [1] [%] | IC50 [2] [nM] | IC50 (PSMA) [nM] | other results
PSMARuc-13: DOTAGA-D-Lys(Ruc-Sub)-D-Asp-β-Ala-TXA-L-Nal-KuE (peptide) | 10.8 | 0.67 |  | 
PSMA-617 | 10.2 |  |  | 
Ruc-SS-TXA-L-Nal-KuE (PSMARuc-7) (peptide) |  | 9.52 |  | 
CN(Cc1ccc(-c2[nH]c3cc(F)cc4c3c2CCNC4=O)cc1)C(=O)CCSSCCC(=O)N[C@H](CC(=O)O)C(=O)N[C@H](Cc1ccc(O)cc1)C(=O)N[C@H](Cc1ccccc1)C(=O)N[C@H](Cc1ccccc1)C(=O)NCCCCCC(=O)NCCCC[C@H](NC(=O)N[C@@H](CCC(=O)O)C(=O)O)C(=O)O [Conjugate 8] ([Mpa](X1)[dD][dY][dF][dF][Ahx]-EuK) |  |  | 1.58 ± 0.94 | logD (n-oct/PBS) ([3]; pH 7.4): -2.83 ± 0.07
CN(Cc1ccc(-c2[nH]c3cc(F)cc4c3c2CCNC4=O)cc1)C(=O)CCSSCCC(=O)NCCCCN1CCN(CC(=O)O)CCN(C(CCC(=O)N[C@H](CC(=O)O)C(=O)N[C@H](CC(=O)O)C(=O)N[C@H](Cc2ccc(O)cc2)C(=O)N[C@H](Cc2ccccc2)C(=O)N[C@H](Cc2ccccc2)C(=O)NCCCCCC(=O)NCCCCCC(=O)NCCCC[C@H](NC(=O)N[C@@H](CCC(=O)O)C(=O)O)C(=O)O)C(=O)O)CCN(CC(=O)O)CC1 (some centres unmarked) [Conjugate 15] |  |  | 4.28 ± 0.95 | logD ([3]; pH 7.4): -3.4 ± 0.07; % bound of total applied dose (LNCaP cells): 6.50 ± 0.50%
PSMARuc-16: DOTAGA-D-Lys(Ruc-SS)-D-Asp-D-Asp-β-Ala-TXA-L-Nal-D-Lys-EuE (peptide) | 5.32 | 0.82 |  | 
PSMARuc-17: DOTAGA-D-Lys(Ruc-SS)-D-Asp-D-Asp-D-Tyr-D-Phe-D-Phe-Ahx-D-Lys-EuE (peptide) | 5.84 | 1.38 |  | 
CN(Cc1ccc(-c2[nH]c3cc(F)cc4c3c2CCNC4=O)cc1)C(=O)CCSSCCC(=O)NCCCCN1CCN(CC(=O)O)CCN(C(CCC(=O)N[C@H](CC(=O)O)C(=O)N[C@H](CC(=O)O)C(=O)NCCC(=O)NC[C@H]2CC[C@H](C(=O)N[C@@H](Cc3ccc4ccccc4c3)C(=O)NCCCC[C@@H](NC(=O)CC[C@H](NC(=O)N[C@@H](CCC(=O)O)C(=O)O)C(=O)O)C(=O)O)CC2)C(=O)O)CCN(CC(=O)O)CC1 (single isomer, unassigned) [Conjugate 18] |  |  |  | PiP/muscle ratios [4, 5]: > 25; PiP:Flu ratios [4, 5]: > 8; tumor uptake (PET/CT, biodistribution) ([4]; 60 min p.i.): selective uptake in PC3-PiP tumors and low uptake in PC3-Flu tumors and other organs
PSMARuc-18: Ruc-SS-MMC-D-Asp-D-Asp-β-Ala-TXA-L-Nal-D-Lys-EuE (peptide) | 6.54 | 0.69 |  | 
Ruc-SS-D-Asp-D-Tyr-D-Phe-D-Phe-Ahx-KuE (PSMARuc-8) (peptide) |  | 1.58 |  | 
CN(Cc1ccc(-c2[nH]c3cc(F)cc4c3c2CCNC4=O)cc1)C(=O)CCSSCCC(=O)NCCCCN1CCN(CC(=O)O)CCN(C(CCC(=O)N[C@H](CC(=O)O)C(=O)N[C@H](CC(=O)O)C(=O)NCCC(=O)NC[C@H]2CC[C@H](C(=O)N[C@@H](Cc3ccc4ccccc4c3)C(=O)NCCCC[C@H](NC(=O)N[C@@H](CCC(=O)O)C(=O)O)C(=O)O)CC2)C(=O)O)CCN(CC(=O)O)CC1 (some centres unmarked) [Conjugate 14] |  |  | 2.19 ± 0.37 | logD ([3]; pH 7.4): -3.42 ± 0.15; % bound of total applied dose (LNCaP cells): 6.46 ± 0.98%
PSMARuc-10: DOTAGA-D-Lys(Ruc-SS)-D-Asp-D-Tyr-D-Phe-D-Phe-Ahx-KuE (peptide) | 6.18 | 1.34 |  | 
CN(Cc1ccc(-c2[nH]c3cc(F)cc4c3c2CCNC4=O)cc1)C(=O)CCSSCCC(=O)NCCCC[C@@H](NC(=O)CCC(C(=O)O)N1CCN(CC(=O)O)CCN(CC(=O)O)CCN(CC(=O)O)CC1)C(=O)N[C@H](CC(=O)O)C(=O)NCCC(=O)NC[C@H]1CC[C@H](C(=O)N[C@@H](Cc2ccc3ccccc3c2)C(=O)NCCCC[C@H](NC(=O)N[C@@H](CCC(=O)O)C(=O)O)C(=O)O)CC1 (some centres unmarked) [Conjugate 9] |  |  | 3.03 ± 0.2 | biodistribution profile ([4]; 68Ga-labelled): uptake is limited to PSMA+ tumors and kidneys; logD ([3]; pH 7.4): -2.1 ± 0.24; % bound of total applied dose (LNCaP cells): 8.00 ± 1.27%
CN(Cc1ccc(-c2[nH]c3cc(F)cc4c3c2CCNC4=O)cc1)C(=O)CCSSCCC(=O)NCCCC[C@@H](NC(=O)CCC(C(=O)O)N1CCN(CC(=O)O)CCN(CC(=O)O)CCN(CC(=O)O)CC1)C(=O)N[C@H](CC(=O)O)C(=O)N[C@H](Cc1ccc(O)cc1)C(=O)N[C@H](Cc1ccccc1)C(=O)N[C@@H](Cc1ccc2ccccc2c1)C(=O)NCCCCCC(=O)NCCCC[C@H](NC(=O)N[C@@H](CCC(=O)O)C(=O)O)C(=O)O (single isomer, unassigned) [Conjugate 11] |  |  | 5.34 ± 1.45 | biodistribution profile ([4]; 68Ga-labelled): uptake limited to PSMA-expressing tumors and kidneys; tumor uptake (PET/CT, biodistribution) ([4]; 60 min p.i.): uptake in PSMA+ PC3-PIP tumors and no accumulation in PSMA- PC3-Flu tumors; logD ([3]; pH 7.4): -3.11 ± 0.08; stable (intact) after incubation in human serum (Serum stability; 2 hours): 93%; intact after incubation in human serum (Serum stability; 24 hours): 74%; % bound of total applied dose (LNCaP cells): 6.45 ± 1.16%

Continued, in another order:

% bound of total applied dose [1] [%] | IC50 [2] [nM] | IC50 (PSMA) [nM] | Molecule | other results
6.5 | 4.28 |  | PSMARuc-15: Ruc-SS-MMC-D-Asp-D-Asp-D-Tyr-D-Phe-D-Phe-Ahx-Ahx-KuE (peptide) | 
3.48 | 2.12 |  | PSMARuc-12: DOTAGA-D-Lys(Ruc-SS)-D-Asp-D-Tyr-D-Phe-D-Phe-Ahx-Ahx-KuE (peptide) | 
6.46 | 2.19 |  | PSMARuc-14: Ruc-SS-MMC-D-Asp-D-Asp-β-Ala-TXA-L-Nal-KuE (peptide) | 
8 | 3.03 |  | PSMARuc-9: DOTAGA-D-Lys(Ruc-SS)-D-Asp-β-Ala-TXA-L-Nal-KuE (peptide) | 
 |  | 1.75 ± 0.16 | O=C(O)CC[C@H](NC(=O)N[C@@H](CCCCNC(=O)[C@H](Cc1ccc2ccccc2c1)NC(=O)[C@H]1CC[C@H](CNC(=O)CN2CCN(CC(=O)O)CCN(CC(=O)O)CCN(CC(=O)O)CC2)CC1)C(=O)O)C(=O)O [PSMA-617] | logD ([3]; n-octanol/PBS pH 7.4, after radiolabeling with 68Ga, read-out: logD (n-oct/PBS)): -3.62 ± 0.49; % bound of total applied dose (LNCaP cells; 60 min incubation with 0.4 nM 68Ga-labelled conjugates): 10.23 ± 0.86%
 |  | 9.52 ± 2.41 | CN(Cc1ccc(-c2[nH]c3cc(F)cc4c3c2CCNC4=O)cc1)C(=O)CCSSCCC(=O)NC[C@H]1CC[C@H](C(=O)N[C@@H](Cc2ccc3ccccc3c2)C(=O)NCCCC[C@H](NC(=O)N[C@@H](CCC(=O)O)C(=O)O)C(=O)O)CC1 [Conjugate 7] | logD (n-oct/PBS) ([3]; pH 7.4): -2.98 ± 0.21
6.45 | 5.34 |  | PSMARuc-11: DOTAGA-D-Lys(Ruc-SS)-D-Asp-D-Tyr-D-Phe-L-Nal-Ahx-KuE (peptide) | 
